In the nanobody polyreactivity screen of Harvey et al. (2022):

Assay: yeast display, Sf9 membrane polyspecificity reagent, FACS + sequencing; frameworks hold sequencing errors
Method in brief: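 Galactose induction of a Saccharomyces cerevisiae BJ5465 synthetic nanobody display library ran 36–48 hours. The cells were then stained for 1 hour at 4 °C with 10% biotinylated, detergent-solubilized Sf9 membrane reagent, pulled down on streptavidin microbeads and FACS-sorted into low and high (top ~1%) gates on expression and reagent-binding fluorescence. Labels for polyreactivity follow the gate of origin.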

| Sequence | polyreactivity (PSR sort gate) |
| --- | --- |
| QVQLVESGGGLDQAGCSLRLSCAASGRIFPYMGWYRQAPGKDRELVAAINASGGRTYYADSVKGRFTISRDNAKNTVYLQMNSLKPEDTAVYYCNAVWSSDTYTHPQYDYWGQGTQVTVSS | high polyreactivity |
| QVQLVESGGGLVQAGGSLRLSCAASGRIFRVYTMGWYRPAPGKESELVAAISRGGSTNYADSVKGRFTISRDNAKNTVYLQMNSLKPEDTAVYYCAARYPNLRRRWYYYWGQGTQVTVSS | high polyreactivity |
| QVQLVESGGGLVQAGGSLRLSCAASGFIFGANAMGWYRPAPGKERELVAAITWSAGRTYYADSVKGRFTISRVNAKNTVYLKMNSLKREDSAVYYCAKQRARQSPEVGYWGQGTQVTVSS | high polyreactivity |
| QVQLVESGGCLVQAGGSLRLSCAASGFIFDPYVMGWYIQAPGKERELVAAITYNGGRTYYADSVKGRFTISRDNAKNTVYLQMNSLKPEDTAVYYCNKDYRIGQTWYDYWGQVTQVTVSS | low polyreactivity |
| QVQLVESGGGLVQAGGSLRLSCAASGRTFRYNAKGSYIQAPGKERELVAAINWNGGSTYYADSVKGSFTISRDNAKNTVYLQMNSLKQEDTAVYYCNADFYHRYDWGQGTQVSVSS | high polyreactivity |
| QVQLVESGGGLVQAGGSLRLSCAASGRTFDVNAMGWYRQAPGKERELVAAIRISGGSTYYADSVKGRFTISRDNAKNTVYLQMNSLKPEDTAVYYCAAYERRYRNAYDYWGQGTQVTVSS | high polyreactivity |
| QVQLVQSGAGLVQARGSLRLSCAASGSTFRRNVMGWYRQAPGTERELVAAISWSGTSTNYADSVKWRFTISRDNAKNTVYLQMNSLKPEDTAVYYCATQSLYYRWGLDYWGQGTQVTVSS | high polyreactivity |
| QVQLVESGGGLVQAGGSLRLSCAASGSIFISYVMGWYRQAPAKERELVASISWSGGSTYYADSVKGRFTISRDNAKNTVYLQMNSLKPEDTAVYYCAADRLVRIRSYRDLGYWGQGTQVTVSS | high polyreactivity |
| QVQLVESGGGLVQAGGSLRLSCAASGRTFGYNTMGWYRQQPGKEREFVAAINYSGGSTYYADSVKGRFTISRDYGKNTVYLQMNSLKPEDTAVYYCNAKPRWYVPYDYWGQGTQVTVSS | high polyreactivity |
| QVQLVESGGGLVQAGGSLRLSCAGSGRTFQYYAMGCYRQAPGKEMELVAGITGGGSTYYADSVKGRFTISRDNAKNTVYLQMNSLKPEDTAVYYCAADRSYYGYGYWGQGTQVTVSS | low polyreactivity |
| QVQLVESGGGLVQAGGSLRLSCAASGRTFKRYAMGWYRQAPGKERELVAAITASGGNTYYADSVKGRFTISRDNAKNTVYLQMNSLKPEDTAVYYCNAVTSVQARPRNYYYWGQGTQVTVSS | high polyreactivity |
| QVQLVESGGGLVQAGGSLRLSCAASGRIFGINVMGWYRQAPGKERELVAAISYRTGSTYYADSVKGRFTISRDNAKNTVYLQMNSLKPEDTAVYYCAAQRRIRTAWYDYWGQGTQVTVSS | high polyreactivity |
| QVQLVESGGGLVQAGGSLRLSCAASGYFDLNAMGWYRQAPGKERELVAAITDGGSTNYADSVKGRFTISRDNAKNTVYLQMNSLKPEDTAVYYCAADRGHTILHGGYWGQGTQVTVSS | low polyreactivity |
| QVQLVESGGGLVQAGGSLRLSCAASGSTFPVYTLGWYRQAPGKERELVAAISWRGTSTYADSVKGRFTISRDNGKNNVYLQMNRLIPEDTAVYYCAAGDTRGMDYWGQGTQVTVSS | high polyreactivity |
| QVQLVESGGGLVQAGGSLRLSCAASGRIFGLYAMGWYRQAPGKERELVAAIRGRGGRTSYADSVKGRFTISRDNAKNTVYLQMNSLKPEDTAVYYCNAELYPWPGVVRYNYWGHGTQVTVSS | high polyreactivity |
| QVQLVESVGGLVQAGASLRLSCAASGFTIDRYAMGWYIQAPAKERELVAAISGSGGRTYYADSVKGRFTISRDNAKNTVYLQMNSLKPEVTAVYYCAAVYLVTRGARYDYCGQGTQVTVSS | high polyreactivity |
| QVQLVESGGGLVQAGGSLRLSCAASGSTFQYYAMGGYIQAPGKQRQLVAAISSGGSTYYADSVKGRFTISRDNAMNTVYLQMNSLKPEDTAVYYCAADGYYSVSRYTSYKYYYWGQGTQVTVSS | high polyreactivity |
| QVQLVESGGGLVQAGGSLRLSCADSGRTFFYNGMGWYRQAPGKERELVAAISGSGSRTYYADSVKGRFTISRDNAKNTVYLQMNSLKPEDTAVYYCAATRVISHYRFDYWGQGTQVTVSS | high polyreactivity |
| QGQLVESGGGLVQAGGSLRLSCAASGFIFSSNAMGLYRHAPGKERELVAAISSSGGNTYYADSVKGRFTISRDNAKKTVDLQMNSLKPEDTAVYYCAADLSSAYGHDYWGLGTQVTVSS | low polyreactivity |
| QVQLVESGGGIVQAGGSLRLSWAASGSINYRNARGCYRQAPGKERELVAAISSDGSTNYADSVKGRFTISRDNAKNTVYLQMNRLKPEDTAVYSCASPWTQILDYWGKGTQVTVSS | low polyreactivity |
| QVLLVESGGGLVQAGGSLRLSCAASRSIFEVNPMGWYRQAPGKERELVAAISCSGGSTYYADSVKGRFTISRDNAKNTVYLQMNSLKPEDTAVYYCAARQAGYSGRKLYYWGQGTQVTVSS | low polyreactivity |
| QVHLVESGAGLVQAGGSLRLSCAASGSTFAPNAMGWYRQAPGKERELVAAISSGGDSTNYADSVKGRFTISRDNAKNTVYLQMNSLKPEDTEVYYCAHGYWFVAYDYWGEGTQVTVSS | low polyreactivity |

| Sequence | polyreactivity (PSR sort gate) |
| --- | --- |
| QVQLVESGGGLVQAGGSLRLSCAASGSTFYRYAMGWYRQAPGKERELVAAISTRSGSTYYADSVKGRFTISRDNAKNTVYLQMNSLKPEDTAVYYCAADGHKKTARKYYYWGQGTEVTVSS | low polyreactivity |
| QVHLVESGGGLVQAGGSLRLSCAASGRIFYYYAMGWYRQAPGKERELVAGITITDASTYYADSVKGRFTISRDYAKNTVYLQMNSLKPEYTAVYYCNAVRYWEGRRYYYWGQGTQVTVSS | high polyreactivity |
| QVQLVESGGGLVQAGGSLRLSCAASGSIIVLNAMGWYRQAPGKERELVAAITSGGSTYYADSVKGRFTISRDNAKNTVYLQMNSLKPEDTAVYYCNALDLSPSYKYDYWGQGTQVTVSS | low polyreactivity |
| QVQLVESGGGLVQAGGSLRLSCAASGSTFLYYGMGWYRQAPGKERALVAGIDGTGSSTYYADSVKGRFTISRDNAKNTVYLQMNSLKPEDTAVYYCAKRYPRYRSRYYYWGQGTQVTVSS | low polyreactivity |
| QVQLVESGGGLVQAGGSLRLSCAASGSIFIVNAMGWYRQAPGKERELVATITSDVDTNYADSVKGRFTISRDNAKNTVYLQMNSLKPEDTAVYYCAKESTKIYRVVEMDYWGQGTQVTVSS | low polyreactivity |
| QVQLVESGGGLVQAGGSLRLSFAASGLIIFSYAMGWYRHAPGKEREIVASIRSSGGSTNYADSVKGRFTISRDNAKNTVYLQMYSLKPEDTAVYYCATRSKTSGRSYIPFNYWGQGTQVTVSS | high polyreactivity |
| QVQLVESGRVLVQAGGSLRLSCAASGITFISYAMGWYRPAPGKQSELVAVISKSGGRTYYADSVKGSFTISRDNANNTVYLQMNSLKPEDTAVYYCAADVYLSRYEKYGYWGQGTQVTVSS | high polyreactivity |
| QVQLLESGAGLVQAGGSLRLIWAASGIIIGHYGMGWYRQAPGKERELVAVISSSGGRTYYADSVKGRFTISRDNAKNTVYLQMNSLKPEDTAVYYCNGGPQVRYWQGTYEYWGQGTQVTVSS | high polyreactivity |
| QVQLVDSGGGLVQAGGSLRLSCAASGSTIKYYAMGWYRQEPGKERELVAAINWSGDSTYYADSVKGRFTISRDYAKITVYLQKISLKPEDTAVYYCAVRYQKRAYYGSNYWGQGTQVTVSS | high polyreactivity |
| QVQLVESGGGLVQAGGSLRLSCAASGSIFNRYTMGWYRQAPGKERELVAAISKRGGSTYYADSVKGRFTISRDNAKNTVYLQMNSLKPEDTAVYYCAAAGYHSGKGGGYWGQGTQVTVSS | high polyreactivity |
| QVQLVESGGGLVQAGGSLRLSCAASGRILYSYAMGWYRQAPGKEREFVAAISRSGARTYYADYVKGRFTISRDNAKNTVYLQMNSLKPEDTAVYYCAADDFSTVEYDYWGQGTQVTVSS | low polyreactivity |
| QVQLVESGGGLVQAGGSLRLSCAASGRTFRRYVMGWYRQAPGKERELVAAISYSGATTYYADSVKGRFTISRDNAKNTVYLQMNSLKPEDTAVYYCAATAPGDRYYWGQGTQVTVSS | high polyreactivity |
| QVQLVESGGGLVQAGGSLRLICAASGITFGCNAMGWYRQAPGKEREFVAAITFSDGSTRYADSVKGRFTISRDNAKNTVYLQMNSLKPEDTAVYYCAADTWSDKYDYWGQGTQVTVSS | low polyreactivity |
| QVQLVESGGGLVQAGGSLRLSCAASGRIFVHNAMGWYRQAPGKERELVAAISQNGGRTYYADSVKGRFTISRDNAKNTVYLQMNSLIPEDTAVYYCAAGQARAGLIGGYWGQGTQVTVSS | high polyreactivity |
| QVQLVESGGGLVQAGGSLRLSCDASGSTFPVNAMGWYRQAPGKERELVAAISSRGSSTYYADSVKGRFTISRDNAKNTVYLQMNSLKPEDTAVYYCAAPQRYPRFYYWGQGTQVTVSS | high polyreactivity |
| QVQLVESGGGLVQAGGSLRLSCAASGSTVSDNAMGWYRQAPGKERELVAAINWGGSNTYYADSVKGRFTISRDNAKNTVYLQMNSLKPEDTAVYYFNADIPRRTNRHYLYDYWGQGTQVTVSS | low polyreactivity |
| QVQLVESGGGLVQAGGSLRLSCAASGSIYQNAMGWYRQAPGKQRELVAAITSSGGRTYADSVKGRFTISRDNAKNTVYLQMNSLIPEDTAVYYCAKDSTADELNGFDYWGQGTQVTVSS | low polyreactivity |
| QVQLVESGGGLVQAGGSLRLSCAASGFTFTRNAMGWYRQAPGKERELVAAISGSGGSTYYADSVKGRFTISRDNAKNTVYLQMNSLKPEDTAVYYCAAPLPWAYAYDYWGQGTQVTVSS | high polyreactivity |
| QVQLVESGGGLVQAGGSLRLSCAASGRTFGLYSMGWYRQAPGKVRELVASIDWSDDN | low polyreactivity |
| QLQHVESGRGLVQAGGSLRLSCADSGRTYGGYDMGWYRQATVKERELVAAISYSGGSTYYADSVKGRFTISRDNAKNTVYLEMNSLKPEDTAVFYCAADGYDAYYWGQGTQVTVSS | low polyreactivity |
| QVQLVESGGGLVQAGGSLRLSCAASGSIFGFNAMGWYRQAPGKEREFVAAISKSGGSTYYADSVKGRFTISCDNAKNTVYLQMNSLKPEDTAVYYCNAKSRHYEPYDYWGQGTQVTVSS | high polyreactivity |
| QVQLVESGGGLVQAGGSLRLSCAASGSTFWSYAMGWYTQAPGKERELVAVITGSDGRTFYADSVKGRFTISRDNAKNTVYLQMNSLKPEDTAVYYCAADAVFRATRYDRSTSEDDYWGQGTQVTVSS | low polyreactivity |
